Earlier results as cited in PMC4776139, “Extended string-like binding of the phosphorylated HP1α N-terminal tail to the lysine 9-methylated histone H3 tail” (Scientific Reports, 2016).

Tested on: H3K9me
Settings: effect of N-terminal tail phosphorylation
From the text: In mice there are three HP1 isoforms, HP1α, HP1β and HP1γ with highly conserved CDs that are thought to share a similar structural feature to interact with H3K9me. By contrast, the CDs of these isoforms are connected to a less-conserved N-terminal tail, which is hypothesized to contribute to their isoform-specific function. In HP1α, in particular, there are four successive serine residues in the N-terminal tail that are constitutively phosphorylated in vivo[13]. […] Howeve ...

B1: HP1α: mouse heterochromatin protein 1 isoform; chromodomain with N-terminal tail (protein, UniProt Q61686 1-191, looked up)
Chromobox protein homolog 5: MGKKTKRTADSSSSEDEEEYVVEKVLDRRMVKGQVEYLLKWKGFSEEHNTWEPEKNLDCPELISEFMKKYKKMKEGENNKPREKSEGNKRKSSFSNSADDIKSKKKREQSNDIARGFERGLEPEKIIGATDSCGDLMFLMKWKDTDEADLVLAKEANVKCPQIVIAFYEERLTWHAYPEDAENKEKESAKS
Q: For B1, which “affinity for H3K9me, in words” value is on record?
A: Its value is “its affinity becomes much stronger when the N-terminal tail is phosphorylated”.
